Results reported in patent WO2005054294A2 (dated 2005).

Target: T1, human platelet glycoprotein VI (human, UniProt Q9HCN6 21-339)
T1 sequence (looked up): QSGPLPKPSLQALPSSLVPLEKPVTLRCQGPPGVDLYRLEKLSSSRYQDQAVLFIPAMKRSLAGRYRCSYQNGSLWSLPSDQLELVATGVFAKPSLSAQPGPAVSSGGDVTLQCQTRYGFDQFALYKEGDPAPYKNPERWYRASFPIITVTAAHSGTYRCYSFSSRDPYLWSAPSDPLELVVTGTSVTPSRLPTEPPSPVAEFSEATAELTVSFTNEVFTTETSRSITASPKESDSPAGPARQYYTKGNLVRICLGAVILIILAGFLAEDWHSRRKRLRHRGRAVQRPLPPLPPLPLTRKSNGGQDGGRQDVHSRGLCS
Assay: cell-based or functional assay

IC50 of inhibition of collagen-induced (3 ug/ml) human platelet aggregation ex vivo: 0.12 µg/mL
B1: hGP 5C4 Fab (Fab, V domains shown)
VH: EVKLQESGGGLVQPGRSLKLSCTASGFTFSDYFMSWVRQAPTRGLEWVASISSGGASAYWRDSVKGRFTISRDNAKSALYLQMDSLRSEDTATYFCARGELDFDYWGQGVMVAVSS
VL: ADPNSTLLSASVGDRVTLNCTASQNVYKNLAWYQQKLGEAPRLLLYSANSQTGIPSRFSGSGSGPDFTLTISSLQPEDVASYFCQQYYSGNTFGAGTKLELKR
